Residue numbers refer to the chain shown, from its start. Where two headings read alike, the source gives them in different places.

Assay [1] addresses human α2 integrin with endogenous hamster β1 on CHO cells (human; hamster). Description: cell-based or functional assay.
Assay [2] addresses T1, human platelet α2β1 integrin (immobilized on microtiter plates) (human, UniProt P17301 30-1181; P05556 21-798).
T1 construct: plates custom-coated with human platelet α2β1 by GTI Inc; also called immobilized α2β1 integrin; α2β1-coated plates
Description: competition with Eu-TMC-2206 on human platelet α2β1-coated plate. The protocol:
Each labeled antibody mixture was applied to a separate PD-10 column (GE Biosciences, Piscataway, N.J.) pre-equilibrated with Running Buffer (50 mM Tris, pH 7.4 and 138 mM NaCl). Fractions (0.5 mL) were collected and assayed for total protein (Bradford reagent; Bio-Rad Laboratories, Hercules, Calif.) using a SpectraMax 384 absorbance plate reader and for europium after 1:10.000 dilution in DELFIA Enhancement Solution (Perkin-Elmer) by time-resolved fluorescence (TRF) using a Victor2 multi-label plate reader (Perkin Elmer). The fractions that were positive for both protein and Eu label were pooled and applied to new PD-10 columns and samples collected and assayed for total protein and for europium content by TRF calibrated against a europium standard solution (Perkin-Elmer) to calculate the fluor: protein ratio. […] After incubating the sealed plates for 1 hr at 37° C. to allow binding to reach equilibrium, 2 μL samples were transferred from each well into a fresh well containing DELFIA Enhancement Solution (100 μL/well; Perkin-Elmer) for the measurement of free (unbound) label. Enhancement Solution (100 μL/well) was added to the emptied wells for the measurement of bound label. The plate was shaken (Titer Plate Shaker speed setting of 5 for 5 minutes at room temperature) and time-resolved fluorescent (TRF) intensities were read using a Victor2 multi-label plate reader (Perkin-Elmer Wallac, Boston, Mas.).

Assay [3] addresses T1, human platelet α2β1 integrin …. Described as above. Here is the method: Exemplary IgG1 antibodies have a hVH 14.0 γ heavy chain (SEQ ID NO:181) or a hVH12.0 γ1 heavy chain (SEQ ID NO:182) and a hVL10.0Q light chain (SEQ ID NO:178). Exemplary IgG4 antibodies have a hVH14.0 γ4 heavy chain (SEQ ID NO:174) or a hVH12.0 γ4 heavy chain (SEQ ID NO:176) and a hVL 10.0Q light chain (SEQ ID NO:178). Purified antibodies were tested in the competition assay to compare potency by Kᵢ values as well as in the cell adhesion to collagen assay, where potency is measured as EC₅₀ values.
The source holds these as a separate data set.

Assay [4] concerns the target T2, Humanized TMC-2206 (hIgG4/κ VH12.0/VL10.0Q).
T2 construct: labelled with Eu or Alexa-488 in some assays
As to the kind of experiment: fusion protein competing Eu-humanized TMC-2206 off α2β1-coated plates. From the text:
The inhibition curves were fitted with the “one site competition” model using Prism software (GraphPad, Inc.) to obtain IC₅₀ values and to calculate the Kᵢ using the equation of Cheng and Prusoff (1973) and the respective values for KD from above.
The cloning of the human, rhesus macaque, rat, and mouse α2 I domains were described in Example 12. Cynomolgus and additional rhesus monkey α2 I domains were cloned from cDNA derived from total RNA extracted from skin tissue (MediCorp, Inc., Montreal, QC).

For assay [5], the target named is T3, TMC-2206.
T3 construct: murine IgG1/κ secreted by hybridoma BHA2.1; labelled with Eu-N1-ITC where used as tracer; also called BHA2.1
Description: fusion protein competing Eu-TMC-2206 off α2β1-coated plate.

For assay [6], the target named is T3, TMC-2206. Described as above. The source holds these as a separate data set.

B1: humanized TMC-2206 variant hIgG1/κ VH14.0/VL10.0Q (antibody)
heavy: not shown
light: DFVMTQSPAFLSVTPGEKVTITCSAQSSVNYIHWYQQKPDQAPKKLIYDTSKLASGVPSRFSGSGSGTDYTFTISSLEAEDAATYYCQQWTTNPLTFGQGTKVEIKRTVAAPSVFIFPPSDEQLKSGTASVVCLLNNFYPREAKVQWKVDNALQSGNSQESVTEQDSKDSTYSLSSTLTLSKADYEKHKVYACEVTHQGLSSPVTKSFNRGEC
notes: hVH14.0 γ1 heavy chain and hVL10.0Q light chain; also called VH 14.0 VL 10.0Q (IgG1)
In general, Ki refers to a measure of affinity in units of concentration, obtained from inhibition or displacement. A high value points to lower affinity. For B1, in assay [1], the “EC50 (nM), cell adhesion to collagen assay” value came to 1.3 nM. For the same molecule, the Ki in assay [2] stood at 0.29 nM; in assay [3] it was 0.24 nM.

B2: GST-cynomolgus α2 I domain fusion protein of Example 18 (sequence identical to the human I domain) (other)
chain: SPDFQLSASFSPATQPCPSLIDVVVVCDESNSIYPWDAVKNFLEKFVQGLDIGPTKTQVGLIQYANNPRVVFNLNTYKTKEEMIVATSQTSQYGGDLTNTFGAIQYARKYAYSAASGGRRSATKVMVVVTDGESHDGSMLKAVIDQCNHDNILRFGIAVLGYLNRNALDTKNLIKEIKAIASIPTERYFFNVSDEAALLEKAGTLGEQIFSIEGTV
notes: also called GST-cynomolgous-α2 I domain fusion protein; not shown: glutathione S-transferase tag, vector not restated
For B2, the Ki in assay [4] worked out at 0.47 nM.

B3: GST-hα2 I domain E195W (other)
chain: GSSPDFQLSASFSPATQPCPSLIDVVVVCDESNSIYPWDAVKNFLEKFVQGLDIGPTKTQVGLIQYANNPRVVFNLNTYKTKEEMIVATSQTSQYGGDLTNTFGAIQYARKYAYSAASGGRRSATKVMVVVTDGESHDGSMLKAVIDQCNHDNILRFGIAVLGYLNRNALDTKNLIKEIKAIASIPTERYFFNVSDWAALLEKAGTLGEQIFSIEGTVEFIVTD
notes: same construct as m41; reported to lock the I domain in the open conformation; not shown: GST carrier with the pGEX-2TK vector linker at the N end
On to B3, for which the “fold decrease in Ki values” with TMC-2206 [5] is 45 fold. Affinity with TMC-2206 [6] was put at a Ki of 12.8 nM.

B4: GST-hα2 I domain N73D (other)
chain: B3 chain with N75D, W197E
notes: same construct as m41; not shown: GST carrier with the pGEX-2TK vector linker at the N end
With B4, the “fold decrease in Ki values” with TMC-2206 [5] is 7.8 fold. The inhibitory constant (Ki) with TMC-2206 [6] was 2.17 nM.

B5: GST-hα2 I domain Q89H (other)
chain: B3 chain with Q91H, W197E
notes: as for B4
With B5, in the assay with TMC-2206 [5], the “fold decrease in Ki values” was found to be 15.9 fold. Moreover, the affinity with TMC-2206 [6], expressed as Ki, was 4.46 nM.

The values above are taken from patent US20070128190A1 (GLENMARK PHARMACEUTICALS S A, published 2007).
